Data on 19 molecules can be found in patent publication US20220177587A1, “METHODS AND USES OF VARIANT CD80 FUSION PROTEINS AND RELATED CONSTRUCTS” (Alpine Immune Sciences, Inc., priority 2018, published 2022).

Positions count from the first letter of the chain named. Numbers in names are those of the source. Where “and” joins values, the source holds several entries; their conditions need not be identical. Identical values can stand only once.

B1: I67F/L70R/E88G/A91G/I118V/T120S/T130A (protein)
chain: VIHVTKEVKEVATLSCGHNVSVEELAQTRIYWQKEKKMVLTMMSGDMNIWPEYKNRTIFDITNNLSFVIRALRPSDEGTYECVVLKYGKDGFKREHLAEVTLSVKADFPTPSISDFEVPSSNIRRIICSASGGFPEPHLSWLENGEELNAINTTVSQDPETELYAVSSKLDFNMTTNHSFMCLIKYGHLRVNQTFNWNTTKQEHFPDN
modifications: CD80 v148 ECD
B2: A91G/F92L/F108L/1118V/T120S (protein)
chain: B1 chain with F67I, R70L, G88E, F92L, F108L, A130T
B3: E24G/L25P/L70Q/A91G/I118V/T120S/N152T (protein)
chain: B1 chain with E24G, L25P, F67I, R70Q, G88E, A130T, N152T
modifications: CD80 v149 ECD
B4: A12V/S15F/Y31H/M38L/T41G/M43L/D90N/T130A/P137L/N149D/N152T (protein)
chain: VIHVTKEVKEVVTLFCGHNVSVEELAQTRIHWQKEKKLVLGMLSGDMNIWPEYKNRTIFDITNNLSIVILALRPSDEGTYECVVLKYEKNAFKREHLAEVTLSVKADFPTPSISDFEIPTSNIRRIICSASGGFPELHLSWLENGEELDAITTTVSQDPETELYAVSSKLDFNMTTNHSFMCLIKYGHLRVNQTFNWNTTKQEHFPDN
B5: T41I/A91G (protein)
chain: B1 chain with T41I, F67I, R70L, G88E, V118I, S120T, A130T
modifications: CD80 v44 ECD
B6: K36G/L40M (protein)
chain: B1 chain with K36G, L40M, F67I, R70L, G88E, G91A, V118I, S120T, A130T
B7: K36G/K37Q/M38I/L40M/F59L/E81V/L85R/K89N/A91T/F92P/K93V/R94L/E99G/T130A/N149S (protein)
chain: VIHVTKEVKEVATLSCGHNVSVEELAQTRIYWQKEGQIVMTMMSGDMNIWPEYKNRTILDITNNLSIVILALRPSDEGTYVCVVRKYENDTPVLEHLAGVTLSVKADFPTPSISDFEIPTSNIRRIICSASGGFPEPHLSWLENGEELSAINTTVSQDPETELYAVSSKLDFNMTTNHSFMCLIKYGHLRVNQTFNWNTTKQEHFPDN
B8: K36G/K37Q/M38I/L40M (protein)
chain: VIHVTKEVKEVATLSCGHNVSVEELAQTRIYWQKEGQIVMTMMSGDMNIWPEYKNRTIFDITNNLSIVILALRPSDEGTYECVVLKYEKDAFKREHLAEVTLSVKADFPTPSISDFEIPTSNIRRIICSTSGGFPEPHLSWLENGEELNAINTTVSQDPETELYAVSSKLDFNMTTNHSFMCLIKYGHLRVNQTFNWNTTKQEHFPDN
modifications: CD80 v49 ECD
B9: R29V/M43Q/E81R/L85I/K89R/D90L/A91E/F92N/K93Q/R94G (protein)
chain: VIHVTKEVKEVATLSCGHNVSVEELAQTVIYWQKEKKMVLTMQSGDMNIWPEYKNRTIFDITNNLSIVILALRPSDEGTYRCVVIKYERLENQGEHLAEVTLSVKADFPTPSISDFEIPTSNIRRIICSTSGGFPEPHLSWLENGEELNAINTTVSQDPETELYAVSSKLDFNMTTNHSFMCLIKYGHLRVNQTFNWNTTKQEHFPDN
B10: R29D/Y31L/Q33H/K36G/M38I/T41A/M43R/M47T/E81V/L85R/K89N/A91T/F92P/K93V/R94L/I118T/N149S (protein)
chain: VIHVTKEVKEVATLSCGHNVSVEELAQTDILWHKEGKIVLAMRSGDTNIWPEYKNRTIFDITNNLSIVILALRPSDEGTYVCVVRKYENDTPVLEHLAEVTLSVKADFPTPSISDFETPTSNIRRIICSTSGGFPEPHLSWLENGEELSAINTTVSQDPETELYAVSSKLDFNMTTNHSFMCLIKYGHLRVNQTFNWNTTKQEHFPDN
B11: E24G/R29D/Y31L/Q33H/K36G/M38I/T41A/M43R/M47T/F59L/E81V/L85R/K89N/A91T/F92P/K93V/R94L/H96R/N149S/C182S (protein)
chain: B10 chain with E24G, F59L, H96R, T118I, C182S
B12: R29D/Y31L/Q33H/K36G/M38I/T41A/M43R/M47T/E81V/L85R/K89N/A91T/F92P/K93V/R94L/N149S (protein)
chain: B10 chain with T118I
B13: R29D/Y31L/Q33H/K36G/M38I/T41A/M42T/M43R/M47T/E81V/L85R/K89N/A91T/F92P/K93V/R94L/L148S/N149S (protein)
chain: B10 chain with M42T, T118I, L148S
B14: R29D/Y31L/Q33H/K36G/M38I/T41A/M43R/M47T/E81V/L85R/K89N/A91T/F92P/K93V/R94L/N144S/N149S (protein)
chain: B10 chain with T118I, N144S
B15: E88D/K89R/D90K/A91G/F92Y/K93R (protein)
chain: VIHVTKEVKEVATLSCGHNVSVEELAQTRIYWQKEKKMVLTMMSGDMNIWPEYKNRTIFDITNNLSIVILALRPSDEGTYECVVLKYDRKGYRREHLAEVTLSVKAD
modifications: CD80 v48 IgV
B16: E88D/K89R/D90K/A91G/F92Y/K93R/N122S/N177S (protein)
chain: VIHVTKEVKEVATLSCGHNVSVEELAQTRIYWQKEKKMVLTMMSGDMNIWPEYKNRTIFDITNNLSIVILALRPSDEGTYECVVLKYDRKGYRREHLAEVTLSVKADFPTPSISDFEIPTSSIRRIICSTSGGFPEPHLSWLENGEELNAINTTVSQDPETELYAVSSKLDFNMTTSHSFMCLIKYGHLRVNQTFNWNTTKQEHFPDN
B17: Q33L/E35D/M47L/A71G/F925 (protein)
chain: VIHVTKEVKEVATLSCGHNVSVEELAQTRIYWLKDKKMVLTMMSGDLNIWPEYKNRTIFDITNNLSIVILGLRPSDEGTYECVVLKYEKDASKREHLAEVTLSVKADEPKSSDKTHTCPPCPAPEAEGAPSVFLFPPKPKDTLMISRTPEVTCVVVDVSHEDPEVKFNWYVDGVEVHNAKTKPREEQYNSTYRVVSVLTVLHQDWLNGKEYKCKVSNKALPAPIEKTISKAKGQPREPQVYTLPPSREEMTKNQVSLTCLVKGFYPSDIAVEWESNGQPENNYKTTPPVLDSDGSFFLYSKLTVDKSRWQQGNVFSCSVMHEALHNHYTQKSLSLSPG
B18: H18Y/E35DN68M/L97Q (protein)
chain: B17 chain with H18Y, L33Q, L47M, V68M, G71A, S92F, L97Q
B19: H18Y/E35D/N48K (protein, UniProt P33681 35-288, looked up, variant H18Y E35D N48K)
T-lymphocyte activation …: VIHVTKEVKEVATLSCGYNVSVEELAQTRIYWQKDKKMVLTMMSGDMKIWPEYKNRTIFDITNNLSIVILALRPSDEGTYECVVLKYEKDAFKREHLAEVTLSVKADFPTPSISDFEIPTSNIRRIICSTSGGFPEPHLSWLENGEELNAINTTVSQDPETELYAVSSKLDFNMTTNHSFMCLIKYGHLRVNQTFNWNTTKQEHFPDNLLPSWAITLISVNGIFVICCLTYCFAPRCRERRRNERLRRESVRPV

The first test concerns allogeneic CD4+ T cells. Briefly: Mixed Lymphocyte Reaction (MLR), IFN-gamma. To be noted: Table E32; variant ECD-Fc in MLR assay; culture supernatant. In kind it is cell-based, human. The procedure:
Soluble rCD80.Fc bioactivity was tested in a human Mixed Lymphocyte Reaction (MLR). Human primary dendritic cells (DC) were generated by culturing monocytes isolated from PBMC (BenTech Bio, USA) in vitro for 7 days with 500U/ml rIL-4 (R&D Systems, USA) and 250 U/ml rGM-CSF (R&D Systems, USA) in Ex-Vivo 15 media (Lonza, Switzerland). 10,000 matured DC and 100,000 purified allogeneic CD4+ T cells (BenTech Bio, USA) were co-cultured with variant CD80 Fc fusion proteins and controls in 96 well round bottom plates in 200 μl final volume of Ex-Vivo 15 media. On day 5, IFN-gamma secretion in culture supernatants was analyzed using the Human IFN-gamma Duoset ELISA kit (R&D Systems, USA). Optical density was measured by VMax ELISA Microplate Reader (Molecular Devices, USA) and quantitated against titrated rIFN-gamma standard included in the IFN-gamma Duo-set kit (R&D Systems, USA).
Consider B1, for which the “MLR IFN-gamma levels” value was found to be 1003 pg/mL. As to B2, the “MLR IFN-gamma levels” value was found to be 665 pg/mL. On the same count and under the same terms, as for B3, the figure is 969 pg/mL; as for B4, 711 pg/mL.

The same test, now with this note: Table E33; culture supernatant.
Consider B5, for which the “MLR IFN-gamma levels” value was 26052 pg/mL.

For B6, the “MLR IFN-gamma levels” value amounted to 30558 pg/mL. As for B7, the “MLR IFN-gamma levels” value was determined as 3095 pg/mL. Turning to B8, the “MLR IFN-gamma levels” value came out at 811 pg/mL.

For B9, the “MLR IFN-gamma levels” value was determined as 11695 pg/mL. Take B10: the “MLR IFN-gamma levels” value is 5028 pg/mL. B11: the “MLR IFN-gamma levels” value is 13146 pg/mL. Still for that read-out and setting: as for B12, the figure is 24029 pg/mL. On the same count and under the same terms, as for B13, the figure is 17387 pg/mL; as for B14, 7943 pg/mL; as for B15, 9356 pg/mL and 5922 pg/mL. Take B16: the “MLR IFN-gamma levels” value was 6345 pg/mL.

The next test relates to human pan T cells. Kind of test: Anti-CD3 coimmobilization assay, IFN-gamma. The format is cell-based. To be noted: Table E32; variant ECD-Fc coimmobilized with anti-CD3; culture supernatant. In short, it runs like this: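 IFN-gamma in 3-day culture supernatants, quantified by ELISA, reflects costimulation. Human pan T cells or BC3 clone (100,000/well, Ex-Vivo 15) were placed on wells pre-adsorbed overnight with rCD80.Fc variants (1–80 nM) together with anti-CD3 OKT3 (1 nM or 4 nM), unbound protein removed.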
Turning to B1, the “Coimmobilization with anti CD3 IFN-gamma” value stood at 62 pg/mL. Same read-out and setting: as for B2, the figure is 59 pg/mL; as for B3, 101 pg/mL; as for B4, 104 pg/mL.

Staying with this test, now noted: Table E33; culture supernatant, 3 days.
In the case of B5, the “Coimmobilization with anti-CD3 IFN-gamma” value stood at 433 pg/mL. B6: the “Coimmobilization with anti-CD3 IFN-gamma” value is 699 pg/mL. The same measure, in the same setting: with B7 the figure was 507 pg/mL; with B8, 427 pg/mL. The same measure, in the same setting: with B9 the figure was 342 pg/mL. Regarding B10, the “Coimmobilization with anti-CD3 IFN-gamma” value stood at 387 pg/mL. Consider B11, for which the “Coimmobilization with anti-CD3 IFN-gamma” value came to 406 pg/mL. On the same count and under the same terms, as for B12, the figure is 405 pg/mL. Same read-out and setting: as for B13, the figure is 464 pg/mL. Take B14: the “Coimmobilization with anti-CD3 IFN-gamma” value turned out to be 400 pg/mL. With B15, the “Coimmobilization with anti-CD3 IFN-gamma” value was 1125 pg/mL and 944 pg/mL. Take B16: the “Coimmobilization with anti-CD3 IFN-gamma” value worked out at 773 pg/mL.

Another test deals with CD28 (Homo sapiens, UniProt P10747). Briefly: Jurkat/IL2 + K562/OKT3/PD-L1 reporter assay. Conditions: Table E7; K562/OKT3/PD-L1 aAPC; 50 nM. The format is cell-based. Also on record: host or cells: Jurkat cells expressing an IL-2-luciferase reporter. A general note: A reporter such as luciferase makes a cellular process visible.
On to B17, for which the “Fold Increase over WT CD80-IgV-Fc” value came to 0.7 and the “Relative Luciferase Units (RLU), CD80-Fc Conc. 50 nM” value came out at 394 RLU.

Turning to B18, the “Fold Increase over WT CD80-IgV-Fc” value came out at 7.7 and the “Relative Luciferase Units (RLU), CD80-Fc Conc. 50 nM” value was found to be 4336 RLU.

The test is the same for the next values; noted with them: Table E8; K562/OKT3/PD-L1 aAPC; 50 nM.
As for B19, the “Relative Luciferase Units (RLU), CD80-Fe Cone 50 nM” value is reported as 1230 RLU.
